# Source: patent US20200172619A1
# Like-named read-outs stand apart in the source and are kept apart here.
# Experiments:
# [1] = target: human TNFR1-Fc fusion protein (human) (UniProt P19438); assay: ELISA, immobilized human TNFR1-Fc
# [2] = target: human TNFR1-Fc fusion protein (human) (UniProt P19438); assay: ELISA, human TNFR1-Fc
# [3] = target: TNFR1 on the surface of cells (HT1080, HeLa, Kym-1) (human) (UniProt P19438); assay: cell-based or functional assay
# [4] = target: TNFR1 on the surface of cells (HT1080, HeLa, Kym-1) (human) (UniProt P19438); assay: cell-based or functional assay; remark: listed apart in the source
# Chain of TNFR1 on the surface of cells (HT1080, HeLa, Kym-1) (human) (P19438 30-455): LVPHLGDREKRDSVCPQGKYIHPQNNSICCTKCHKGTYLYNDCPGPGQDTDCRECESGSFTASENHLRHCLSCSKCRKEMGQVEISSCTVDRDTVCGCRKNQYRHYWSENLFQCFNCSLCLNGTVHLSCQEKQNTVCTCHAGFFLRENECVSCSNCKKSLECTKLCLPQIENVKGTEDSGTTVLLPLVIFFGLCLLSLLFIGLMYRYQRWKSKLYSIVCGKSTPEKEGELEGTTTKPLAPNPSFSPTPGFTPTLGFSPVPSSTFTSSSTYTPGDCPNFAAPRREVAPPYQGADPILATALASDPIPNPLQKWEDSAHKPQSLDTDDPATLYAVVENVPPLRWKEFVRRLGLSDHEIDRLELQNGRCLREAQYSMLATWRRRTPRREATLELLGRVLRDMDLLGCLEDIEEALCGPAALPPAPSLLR
# Chain of human TNFR1-Fc fusion protein (human) (P19438 30-211): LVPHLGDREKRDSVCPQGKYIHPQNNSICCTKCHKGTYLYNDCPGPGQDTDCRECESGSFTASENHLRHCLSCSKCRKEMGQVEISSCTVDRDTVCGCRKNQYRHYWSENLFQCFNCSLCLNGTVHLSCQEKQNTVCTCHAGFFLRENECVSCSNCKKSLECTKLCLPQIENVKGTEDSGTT
substance,measurement,setting,value
ATROSAB (antibody),EC50,[1],0.4 nM
same,EC50,[2],0.09 nM
same,"IC50, Cell death induction [nM] (Kym-1 cells, 0.01 nM TNF)",[3],64.4 nM
same,"IC50, IL-6 [nM] (HeLa cells, 0.1 nM TNF)",[3],165 nM
same,"IC50, IL-8 [nM] (HT1080 cells, 0.1 nM TNF)",[3],84.1 nM
same,IL-8 Inhibition IC50,[3],97.8 nM
same,IL-8 Inhibition IC50,[4],136 nM
